Measured values reported in PMC9628480, “Discovery and structural characterization of chicoric acid as a SARS-CoV-2 nucleocapsid protein ligand and RNA binding disruptor”.

Tests used:
N protein NTD = N protein NTD (SARS-CoV-2, UniProt A0A6B9VLF5 43-174); test: fluorescence polarization; details: protein: recombinant; tags: SUMO tag (pET-SUMO) cleaved; label: 5'-FITC; hairpin
N protein CTD = N protein CTD (SARS-CoV-2, UniProt A0A6B9VLF5 250-364); test: fluorescence polarization; details: protein: recombinant; tags: SUMO tag (pET-SUMO) cleaved; chain copies: 2; label: 5'-FITC; hairpin

## CACUCACUGUCUUUUUUGAUGGUAGAGU (structured_RNA) [RNA1]
N protein NTD
  binding result: no binding
N protein CTD
  binding result: no binding
